Where a SMILES comes first, the peptide text is derived from it.

T1: AtGTR1 (Arabidopsis thaliana, UniProt Q944G5)
T1 construct: A library of Arabidopsis transporters available as full length cDNAs from the RIKEN bioresource center; expressed in transfected cells; host or cells: Xenopus oocytes injected with in vitro transcribed cRNA
T1 sequence (Q944G5 31-636 limits assumed): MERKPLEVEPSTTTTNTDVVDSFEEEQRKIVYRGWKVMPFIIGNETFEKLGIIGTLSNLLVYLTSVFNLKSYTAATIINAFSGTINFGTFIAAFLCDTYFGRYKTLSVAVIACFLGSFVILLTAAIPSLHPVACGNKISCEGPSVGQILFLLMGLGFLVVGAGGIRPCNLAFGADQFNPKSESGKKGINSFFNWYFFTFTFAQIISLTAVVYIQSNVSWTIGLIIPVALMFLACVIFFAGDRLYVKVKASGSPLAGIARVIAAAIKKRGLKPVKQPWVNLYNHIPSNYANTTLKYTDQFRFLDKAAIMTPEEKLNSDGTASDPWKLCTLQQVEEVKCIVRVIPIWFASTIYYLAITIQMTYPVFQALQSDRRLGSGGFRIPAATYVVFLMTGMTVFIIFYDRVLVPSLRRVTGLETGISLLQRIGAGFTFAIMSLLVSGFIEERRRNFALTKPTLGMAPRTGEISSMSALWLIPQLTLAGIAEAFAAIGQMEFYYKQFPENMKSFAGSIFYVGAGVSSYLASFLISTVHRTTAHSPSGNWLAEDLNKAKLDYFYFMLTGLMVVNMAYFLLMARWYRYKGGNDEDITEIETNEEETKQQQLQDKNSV

B1: GTR1 S22A: GTR1 of SEQ ID NO: 2 with S at position 22 for A, mimicking dephosphorylation (protein, listed as Arabidopsis thaliana)
chain: MERKPLEVEPSTTTTNTDVVDAFEEEQRKIVYRGWKVMPFIIGNETFEKLGIIGTLSNLLVYLTSVFNLKSYTAATIINAFSGTINFGTFIAAFLCDTYFGRYKTLSVAVIACFLGSFVILLTAAIPSLHPVACGNKISCEGPSVGQILFLLMGLGFLVVGAGGIRPCNLAFGADQFNPKSESGKKGINSFFNWYFFTFTFAQIISLTAVVYIQSNVSWTIGLIIPVALMFLACVIFFAGDRLYVKVKASGSPLAGIARVIAAAIKKRGLKPVKQPWVNLYNHIPSNYANTTLKYTDQFRFLDKAAIMTPEEKLNSDGTASDPWKLCTLQQVEEVKCIVRVIPIWFASTIYYLAITIQMTYPVFQALQSDRRLGSGGFRIPAATYVVFLMTGMTVFIIFYDRVLVPSLRRVTGLETGISLLQRIGAGFTFAIMSLLVSGFIEERRRNFALTKPTLGMAPRTGEISSMSALWLIPQLTLAGIAEAFAAIGQMEFYYKQFPENMKSFAGSIFYVGAGVSSYLASFLISTVHRTTAHSPSGNWLAEDLNKAKLDYFYFMLTGLMVVNMAYFLLMARWYRYKGGNDEDITEIETNEEETKQQQLQDKNSV
B2: GTR1 T105A: GTR1 of SEQ ID NO: 2 with T at position 105 for A (protein, listed as Arabidopsis thaliana)
chain: MERKPLEVEPSTTTTNTDVVDSFEEEQRKIVYRGWKVMPFIIGNETFEKLGIIGTLSNLLVYLTSVFNLKSYTAATIINAFSGTINFGTFIAAFLCDTYFGRYKALSVAVIACFLGSFVILLTAAIPSLHPVACGNKISCEGPSVGQILFLLMGLGFLVVGAGGIRPCNLAFGADQFNPKSESGKKGINSFFNWYFFTFTFAQIISLTAVVYIQSNVSWTIGLIIPVALMFLACVIFFAGDRLYVKVKASGSPLAGIARVIAAAIKKRGLKPVKQPWVNLYNHIPSNYANTTLKYTDQFRFLDKAAIMTPEEKLNSDGTASDPWKLCTLQQVEEVKCIVRVIPIWFASTIYYLAITIQMTYPVFQALQSDRRLGSGGFRIPAATYVVFLMTGMTVFIIFYDRVLVPSLRRVTGLETGISLLQRIGAGFTFAIMSLLVSGFIEERRRNFALTKPTLGMAPRTGEISSMSALWLIPQLTLAGIAEAFAAIGQMEFYYKQFPENMKSFAGSIFYVGAGVSSYLASFLISTVHRTTAHSPSGNWLAEDLNKAKLDYFYFMLTGLMVVNMAYFLLMARWYRYKGGNDEDITEIETNEEETKQQQLQDKNSV
B3: GTR1 S22D: GTR1 of SEQ ID NO: 2 with S at position 22 for D, mimicking phosphorylation (protein, listed as Arabidopsis thaliana)
chain: MERKPLEVEPSTTTTNTDVVDDFEEEQRKIVYRGWKVMPFIIGNETFEKLGIIGTLSNLLVYLTSVFNLKSYTAATIINAFSGTINFGTFIAAFLCDTYFGRYKTLSVAVIACFLGSFVILLTAAIPSLHPVACGNKISCEGPSVGQILFLLMGLGFLVVGAGGIRPCNLAFGADQFNPKSESGKKGINSFFNWYFFTFTFAQIISLTAVVYIQSNVSWTIGLIIPVALMFLACVIFFAGDRLYVKVKASGSPLAGIARVIAAAIKKRGLKPVKQPWVNLYNHIPSNYANTTLKYTDQFRFLDKAAIMTPEEKLNSDGTASDPWKLCTLQQVEEVKCIVRVIPIWFASTIYYLAITIQMTYPVFQALQSDRRLGSGGFRIPAATYVVFLMTGMTVFIIFYDRVLVPSLRRVTGLETGISLLQRIGAGFTFAIMSLLVSGFIEERRRNFALTKPTLGMAPRTGEISSMSALWLIPQLTLAGIAEAFAAIGQMEFYYKQFPENMKSFAGSIFYVGAGVSSYLASFLISTVHRTTAHSPSGNWLAEDLNKAKLDYFYFMLTGLMVVNMAYFLLMARWYRYKGGNDEDITEIETNEEETKQQQLQDKNSV
B4: GTR1 T105D: GTR1 of SEQ ID NO: 2 with T at position 105 for D (protein, listed as Arabidopsis thaliana)
chain: MERKPLEVEPSTTTTNTDVVDSFEEEQRKIVYRGWKVMPFIIGNETFEKLGIIGTLSNLLVYLTSVFNLKSYTAATIINAFSGTINFGTFIAAFLCDTYFGRYKDLSVAVIACFLGSFVILLTAAIPSLHPVACGNKISCEGPSVGQILFLLMGLGFLVVGAGGIRPCNLAFGADQFNPKSESGKKGINSFFNWYFFTFTFAQIISLTAVVYIQSNVSWTIGLIIPVALMFLACVIFFAGDRLYVKVKASGSPLAGIARVIAAAIKKRGLKPVKQPWVNLYNHIPSNYANTTLKYTDQFRFLDKAAIMTPEEKLNSDGTASDPWKLCTLQQVEEVKCIVRVIPIWFASTIYYLAITIQMTYPVFQALQSDRRLGSGGFRIPAATYVVFLMTGMTVFIIFYDRVLVPSLRRVTGLETGISLLQRIGAGFTFAIMSLLVSGFIEERRRNFALTKPTLGMAPRTGEISSMSALWLIPQLTLAGIAEAFAAIGQMEFYYKQFPENMKSFAGSIFYVGAGVSSYLASFLISTVHRTTAHSPSGNWLAEDLNKAKLDYFYFMLTGLMVVNMAYFLLMARWYRYKGGNDEDITEIETNEEETKQQQLQDKNSV
B5: GTR2 T58A: GTR2 of SEQ ID No: 4 with T at position 58 for A (protein, listed as Arabidopsis thaliana)
chain: MERKPLELESTDNHQNPSSAVYGGSVTAVDSVEEDVQNQKKVVYRGWKVMPFIIGNEAFEKLGIIGTLSNLLVYLTAVFNLKSITAATIINAFSGTINFGTFVAAFLCDTYFGRYKTLSVAVIACFLGSFVILLTAAVPQLHPAACGTAADSICNGPSGGQIAFLLMGLGFLVVGAGGIRPCNLAFGADQFNPKSESGKRGIDSFFNWYFFTFTFAQILSLTLVVYVQSNVSWTIGLTIPAVLMFLACLIFFAGDKLYVKIKASGSPLAGIAQVIAVAIKKRGLKPAKQPWLNLYNYYPPKYANSKLKYTDQFRFLDKAAILTPEDKLQPDGKPADPWKLCTMQQVEEVKCIVRVLPIWFASSIYYLTITQQMTYPVFQALQSDRRLGSGGFVIPAATYVVFLMTGMTVFIVVYDRVLVPTMRRITGLDTGITLLQRIGTGIFFATASLVVAGFVEERRRTFALTKPTLGMAPRKGEISSMSAMWLIPQLSLAGVAEAFAAIGQMEFYYKQFPENMRSFAGSIFYVGGGVSSYLGSFLIATVHRTTQNSSGGNWLAEDLNKGRLDLFYFMIAGILAVNFAYFLVMSRWYRYKGSDDEVTTYETNENIIKQQDKNVA
B6: GTR2 T58D: GTR2 of SEQ ID No: 4 with T at position 58 for D (protein, listed as Arabidopsis thaliana)
chain: MERKPLELESTDNHQNPSSAVYGGSVTAVDSVEEDVQNQKKVVYRGWKVMPFIIGNEDFEKLGIIGTLSNLLVYLTAVFNLKSITAATIINAFSGTINFGTFVAAFLCDTYFGRYKTLSVAVIACFLGSFVILLTAAVPQLHPAACGTAADSICNGPSGGQIAFLLMGLGFLVVGAGGIRPCNLAFGADQFNPKSESGKRGIDSFFNWYFFTFTFAQILSLTLVVYVQSNVSWTIGLTIPAVLMFLACLIFFAGDKLYVKIKASGSPLAGIAQVIAVAIKKRGLKPAKQPWLNLYNYYPPKYANSKLKYTDQFRFLDKAAILTPEDKLQPDGKPADPWKLCTMQQVEEVKCIVRVLPIWFASSIYYLTITQQMTYPVFQALQSDRRLGSGGFVIPAATYVVFLMTGMTVFIVVYDRVLVPTMRRITGLDTGITLLQRIGTGIFFATASLVVAGFVEERRRTFALTKPTLGMAPRKGEISSMSAMWLIPQLSLAGVAEAFAAIGQMEFYYKQFPENMRSFAGSIFYVGGGVSSYLGSFLIATVHRTTQNSSGGNWLAEDLNKGRLDLFYFMIAGILAVNFAYFLVMSRWYRYKGSDDEVTTYETNENIIKQQDKNVA
B7: GTR2 T117A: GTR2 of SEQ ID No: 4 with T at position 117 for A (protein, listed as Arabidopsis thaliana)
chain: MERKPLELESTDNHQNPSSAVYGGSVTAVDSVEEDVQNQKKVVYRGWKVMPFIIGNETFEKLGIIGTLSNLLVYLTAVFNLKSITAATIINAFSGTINFGTFVAAFLCDTYFGRYKALSVAVIACFLGSFVILLTAAVPQLHPAACGTAADSICNGPSGGQIAFLLMGLGFLVVGAGGIRPCNLAFGADQFNPKSESGKRGIDSFFNWYFFTFTFAQILSLTLVVYVQSNVSWTIGLTIPAVLMFLACLIFFAGDKLYVKIKASGSPLAGIAQVIAVAIKKRGLKPAKQPWLNLYNYYPPKYANSKLKYTDQFRFLDKAAILTPEDKLQPDGKPADPWKLCTMQQVEEVKCIVRVLPIWFASSIYYLTITQQMTYPVFQALQSDRRLGSGGFVIPAATYVVFLMTGMTVFIVVYDRVLVPTMRRITGLDTGITLLQRIGTGIFFATASLVVAGFVEERRRTFALTKPTLGMAPRKGEISSMSAMWLIPQLSLAGVAEAFAAIGQMEFYYKQFPENMRSFAGSIFYVGGGVSSYLGSFLIATVHRTTQNSSGGNWLAEDLNKGRLDLFYFMIAGILAVNFAYFLVMSRWYRYKGSDDEVTTYETNENIIKQQDKNVA

The first experiment addresses T1, AtGTR1. The experiment can be described thus: Substrate-induced currents in voltage-clamped Xenopus oocytes expressing AtGTR1. In kind it is cell-based. The conditions noted are these: 133 μM, pH 5, AtGTR1.
For the molecule `C[C@H](N)C(=O)N[C@@H](Cc1cnc[nH]1)C(=O)O` [ala-his] (H-Ala-His-OH), the currents on perfusion result was “did not result in any detectable currents”.

In the case of `CC(NC(=O)C(N)CC(=O)O)C(=O)O` (stereo not drawn) [asp-ala], the currents on perfusion entry is on record as “did not result in any detectable currents”. Still for that read-out and setting: for `NCC(=O)NCC(=O)NCC(=O)O` [gly-gly-gly] (H-Gly-Gly-Gly-OH) the value was “did not result in any detectable currents”; for `CC(C)C[C@H](NC(=O)CN)C(=O)O` [gly-leu], “did not result in any detectable currents”; for `CSCC[C@H](N)C(=O)N[C@@H](C)C(=O)N[C@@H](CO)C(=O)O` [met-ala-ser] (H-Met-Ala-Ser-OH), “did not result in any detectable currents”.

Another experiment deals with Xenopus oocytes. The experiment can be described thus: 4-MTB import by phosphorylation/dephosphorylation mimicking GTR1 and GTR2 constructs in oocytes (LC-MS). It is filed as cell-based. The conditions noted are these: 100 μM 4-MTB, Kulori pH 5, one hour.
With B1, the 4-MTB transport activity entry is “turns of f transport completely”. The same measure, in the same setting: for B2 the value was “block the transport activity”; for B3, “keeps the import intact”. The same measure, in the same setting: for B4 the value was “block the transport activity”; for B5, “keeps the transport activity intact”; for B6, “inactivates the transport”. On the same count and under the same terms, for B7 the value was “block the transport activity”.

The values are drawn from patent US20140137294A1, “GLUCOSINOLATE TRANSPORTER PROTEIN AND USES THEREOF” (UNIVERSITY OF COPENHAGEN, priority 2010, published 2014).
